Assay results reported in the supplement of paper PMC9732359.
± gives the uncertainty stated by the source.

Test: protein stability index of a GFP-peptide fusion (yeast GPS) (PSI 1-4); higher = more stable; sorted into four equal gates, so the index is relative within each strain
In short: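 For each peptide, the protein stability index sums the read frequency in every gate after multiplying it by the gate number. Read frequencies came from plasmids that were PCR-amplified from each gate and Illumina-sequenced, with reads assigned to strains by barcodes. The gates were four equal bins of GFP/Cherry fluorescence ratio applied to mid-log yeast in leucine-free medium carrying a pooled library of tiled 17-residue yeast protein peptides fused downstream of GFP on a Cherry-expressing plasmid.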

Sequence	protein stability index (doa10∆)	protein stability index (pdr5∆)	protein stability index (san1∆)	protein stability index (ubr1∆)
EDEDEDLFGDSNKSNST [SSN2]	2.69 ± 0.05	2.82 ± 0.061	2.86 ± 0.079	2.18 ± 0.032
LSINKNFINQEDEGEER [RPC17]		3.29 ± 0.28		
YLADDIDADSLEDIYTS [RPL5]	2.68 ± 0.095	1.96 ± 0.08	2 ± 0.08	2.37 ± 0.065
LSVVKYLLASLKDSKDF [RPN9]	2.19 ± 0.12	2.67 ± 0.16		
GAIILTKMDGHARGGGA [SRP54]	2.88 ± 0.24	3.13 ± 0.16	2.95 ± 0.13	
LSNEFTATNSKGEQIAI [ECM29]	3.06 ± 0.11	3.25 ± 0.12	2.91 ± 0.18	3.26 ± 0.11
QSSFAGTWSAKEAVFKS [FAS2]	2.98 ± 0.078	3.23 ± 0.071	3.18 ± 0.054	2.99 ± 0.058
FIYDTEKNGGLGWDLDA [FAS2]	3.21 ± 0.088	2.96 ± 0.12	3.31 ± 0.051	2.52 ± 0.054
QQQQIQVPLQQTQAIAQ [YGR119C/NUP57]	2.61 ± 0.061	2.82 ± 0.048	2.88 ± 0.039	2.885 ± 0.028
IDLLWKGKTPKNAAESS [PRP28]	2.86 ± 0.17	3.12 ± 0.18	2.91 ± 0.15	3.14 ± 0.13
TSNNETNNGNDDNETEN [GRR1]	3.03 ± 0.074	3.28 ± 0.077	3.14 ± 0.053	2.92 ± 0.055
LTLQEDYIKDEQRHLKR [RPT3]	3.43 ± 0.11	3.18 ± 0.081	3.14 ± 0.085	3.32 ± 0.07
WNLNATKPNVLNDPSLK [SIN4]	3 ± 0.088	2.94 ± 0.071	3 ± 0.054	3.26 ± 0.04
GIKPPKGVLLYGPPGTG [RPT4]	2.73 ± 0.13	2.62 ± 0.072	2.22 ± 0.22	2.01 ± 0.075
DKDVKAKYETSILEHSG [FAS2]	3.36 ± 0.058	3.33 ± 0.065	3.23 ± 0.052	3.37 ± 0.064
VPPMKLAYSKIVNGQTF [YMR129W/POM152]	1.37 ± 0.068	1.48 ± 0.072	1.09 ± 0.12	1.65 ± 0.053
QRKNIQSLELMIYDDAH [BRR2]	2.39 ± 0.047	2.61 ± 0.051	2.54 ± 0.066	2.46 ± 0.049
IEAEEAEEIGVEHLLRD [RPN8]	3.1 ± 0.19		3.15 ± 0.13	3.23 ± 0.068
QILENYNALFQQNIKFR [YJL039C/NUP192]	2.73 ± 0.075	2.79 ± 0.065	2.86 ± 0.036	3.04 ± 0.054
QPDANKKKRSRTSATRE [ISW2]	3.46 ± 0.14	3.38 ± 0.079	3.5 ± 0.057	3.16 ± 0.1
AGGAADCQFWETWLGSQ [PRE2]	3.19 ± 0.18	3.19 ± 0.15	2.97 ± 0.09	3.77 ± 0.13
IIHFHSHPEKRMIPPRM [SSN3]	3.09 ± 0.07	2.95 ± 0.067	3.06 ± 0.065	3.13 ± 0.049
MSTKAQNPMRDLKIEKL [RPL11B]	3.36 ± 0.16	3.25 ± 0.11	3.46 ± 0.11	3.6 ± 0.23
PEGTLSGGSRNTSESLL [SMC2]	3.4 ± 0.2	3.29 ± 0.15	3.44 ± 0.13	3.28 ± 0.25
IKHSKCRQEFLERVKAN [RPL21A]		3.1 ± 0.23		
GVDAMSVDDLKKLNKNK [RPL1A]	3.33 ± 0.078	3.14 ± 0.12	3.25 ± 0.058	3.73 ± 0.11
IYISNLVRSIIAFDDLI [RPN8]	1.42 ± 0.066	1.36 ± 0.11	1.17 ± 0.23	1.27 ± 0.27

Sequence	protein stability index (doa10∆)	protein stability index (pdr5∆)	protein stability index (san1∆)	protein stability index (ubr1∆)
SVINVSAQRDRRYRKRN [RPS17B]		3.04 ± 0.25	3.23 ± 0.24	
WLLHNGFSTGIGDTIAD [RPO21]	3.11 ± 0.16	3.24 ± 0.17	3.26 ± 0.093	3.06 ± 0.15
CSPWSLQISDIPAAGNN [SRB5]	2.07 ± 0.04	2.21 ± 0.04	1.96 ± 0.055	2.41 ± 0.032
VDKELLEPGCSVLLHHK [RPT2]	2.95 ± 0.16	2.8 ± 0.095	2.51 ± 0.17	2.66 ± 0.12
ITQMRVNDEEEHKQLVA [RPC82]	3.29 ± 0.13	2.92 ± 0.099	2.82 ± 0.13	3.34 ± 0.16
EKIRPLRSRSFKSTESN [YMR129W/POM152]			2.87 ± 0.28	
VPMKEENLEESFLSKHA [SSN2]	3.43 ± 0.094	3.69 ± 0.14	2.98 ± 0.2	3.35 ± 0.25
TKPEVASDMSDEDIITI [CDC53]	2.89 ± 0.14	2.56 ± 0.24		2.92 ± 0.12
NMMEHWDYLQLTVAMYI [RPO31]	2.08 ± 0.061	2.2 ± 0.063	2.4 ± 0.15	1.85 ± 0.063
TSQKMKKMVYVLDSMTK [SRP54]	2.79 ± 0.11	3.12 ± 0.11	3.13 ± 0.21	2.96 ± 0.078
SRNKALELNLSVLHSWV [YJL039C/NUP192]		2.5 ± 0.14	2.84 ± 0.08	2.51 ± 0.24
TDCKFIRVSGAELVQKY [RPT6]	3.01 ± 0.14	3.24 ± 0.16	3.16 ± 0.15	2.93 ± 0.11
GQHKNNTSLNINGWKFE [SWP82]	3.09 ± 0.075	3.21 ± 0.074	3.05 ± 0.063	2.99 ± 0.077
WCQEAFPSSETTSLNPI [BRR2]	3.23 ± 0.11	3.33 ± 0.097	3.48 ± 0.11	3.23 ± 0.17
EKDAVSVFGFRTQFGGG [RPS24A]	1.92 ± 0.068	2.09 ± 0.094	2 ± 0.14	1.93 ± 0.064
SILVIVQKILPLSNEVF [SWI1]	1.37 ± 0.045	1.34 ± 0.039	1.3 ± 0.073	1.56 ± 0.037
DTNNEADLMALENATWT [SNF12]	2.58 ± 0.074	3.18 ± 0.11	2.64 ± 0.087	2.94 ± 0.09
EVTIEDALKVVLRTALV [RPS12]	3.35 ± 0.11	3.31 ± 0.091	3.35 ± 0.099	3.11 ± 0.067
MSLTTAAPLLALLRENQ [RPN2]	2.6 ± 0.19	3.31 ± 0.25	2.8 ± 0.12	3.05 ± 0.08
GKRHIFDVNTLCLMTWK [CDC53]	1.25 ± 0.061	1.75 ± 0.066	1.44 ± 0.14	2.08 ± 0.085
VAGAGAASGAAAAGGDA [RPP1B]	3.09 ± 0.18	2.79 ± 0.092	3.22 ± 0.22	2.62 ± 0.078
AKQALDLYHFALNYENE [SNF2]	2.47 ± 0.098	2.83 ± 0.084	2.69 ± 0.095	1.83 ± 0.1
AKWAPTLRTISFKGSPN [SNF2]	3.02 ± 0.16	3.11 ± 0.27	2.77 ± 0.15	2.51 ± 0.14
EKKDSGSSKPAFSFGAK [YJL041W/NSP1]	3.32 ± 0.1	3.26 ± 0.098	3.08 ± 0.073	3.35 ± 0.051
CGGINDSIPYPQIVKLF [ECM29]	1.56 ± 0.07	1.31 ± 0.06	1.96 ± 0.086	1.71 ± 0.049
AKHAVSEGTRAVTKYSS [HTB1]	3 ± 0.08	3.21 ± 0.11	3.41 ± 0.075	3.12 ± 0.09
